# B1: KR: first protein KillerRed, ROS-generating protein (superoxide), expressed from pRSET-KillerRed, 31 kDa (protein)
# chain: MRGSHHHHHHGMASMTGGQQMGRDLYDDDDKDPMLCCMRRTKQVEKNDEDQKISEGGPALFQSDMTFKIFIDGEVNGQKFTIVADGSSKFPHGDFNVHAVCETGKLPMSWKPICHLIQYGEPFFARYPDGISHFAQECFPEGLSIDRTVRFENDGTMTSHHTYELDDTCVVSRITVNCDGFQPDGPIMRDQLVDILPNETHMFPHGPNAVRQLAFIGFTTADGGLMMGHFDSKMTFNGSRAIEIPGPHFVTIITKQMRDTSDKRDHVCQREVAYAHSVPRITSAIGSDED
# modifications: pRSET-KillerRed
# notes: first protein KillerRed, ROS-generating protein (superoxide), expressed from pRSET-KillerRed, 31 kDa
# B2: RLuc8.6-KR: fusion protein of RLuc8.6 and KillerRed without lead peptide, 69 kDa (protein)
# chain: MRGSHHHHHHGMASMTGGQQMGRDLYDDDDKDPMASKVYDPEQRKRMITGPQWWARCKQMNVLDSFINYYDSEKHAENAVIFLHGNATSSYLWRHVVPHIEPVARCIIPDLIGMGKSGKSGNGSYRLLDHYKYLTAWFELLNLPKKIIFVGHDWGSALAFHYAYEHQDRIKAIVHMESVVDVIESWMGWPDIEEELALIKSEEGEKMVLENNFFVETLLPSKIMRKLEPEEFAAYLEPFKEKGEVRRPTLSWPREIPLVKGGKPDVVQIVRNYNAYLRASDDLPKLFIESDPGFFYNAIVEGAKKFPNTEFVKVKGLHFLQEDAPDEMGKYIKSFVERVLKNEQEFGGGMLCCMRRTKQVEKNDEDQKISEGGPALFQSDMTFKIFIDGEVNGQKFTIVADGSSKFPHGDFNVHAVCETGKLPMSWKPICHLIQYGEPFFARYPDGISHFAQECFPEGLSIDRTVRFENDGTMTSHHTYELDDTCVVSRITVNCDGFQPDGPIMRDQLVDILPNETHMFPHGPNAVRQLAFIGFTTADGGLMMGHFDSKMTFNGSRAIEIPGPHFVTIITKQMRDTSDKRDHVCQREVAYAHSVPRITSAIGSDED
# modifications: pRSET-RLuc8.6-KillerRed
# B3: RLuc8.6-KR-LP: fusion protein of RLuc8.6, KillerRed and lead peptide WLEAAYQRFL, 71 kDa (protein)
# chain: MRGSHHHHHHGMASMTGGQQMGRDLYDDDDKDPMASKVYDPEQRKRMITGPQWWARCKQMNVLDSFINYYDSEKHAENAVIFLHGNATSSYLWRHVVPHIEPVARCIIPDLIGMGKSGKSGNGSYRLLDHYKYLTAWFELLNLPKKIIFVGHDWGSALAFHYAYEHQDRIKAIVHMESVVDVIESWMGWPDIEEELALIKSEEGEKMVLENNFFVETLLPSKIMRKLEPEEFAAYLEPFKEKGEVRRPTLSWPREIPLVKGGKPDVVQIVRNYNAYLRASDDLPKLFIESDPGFFYNAIVEGAKKFPNTEFVKVKGLHFLQEDAPDEMGKYIKSFVERVLKNEQEFGGGMLCCMRRTKQVEKNDEDQKISEGGPALFQSDMTFKIFIDGEVNGQKFTIVADGSSKFPHGDFNVHAVCETGKLPMSWKPICHLIQYGEPFFARYPDGISHFAQECFPEGLSIDRTVRFENDGTMTSHHTYELDDTCVVSRITVNCDGFQPDGPIMRDQLVDILPNETHMFPHGPNAVRQLAFIGFTTADGGLMMGHFDSKMTFNGSRAIEIPGPHFVTIITKQMRDTSDKRDHVCQREVAYAHSVPRITSAIGSDEDGGGWLEAAYQRFL
# modifications: pRSET-RLuc8.6-KillerRed-Lead peptide
# What was measured:
# superoxide = experiment: ROS generation: superoxide measured by decrease of DHE fluorescence; type: biochemical
# Experimental: A ROS-generating effect of the RLuc8.6-KR protein was confirmed using 100 μL of buffer (50 mM HEPES-KOH, 24° C., pH 7.4) containing RLuc8.6-KR protein (final concentration: 10 μM), dihydroethidium (DHE, Sigma Aldrich, USA; final concentration of 100 μM) whose fluorescence intensity decreases in the presence of superoxide and a Co-h substrate solution. The rate of decrease in fluorescence intensity was measured at the excitation wavelength of 370 nm and the emission wavelength of 420 nm of DHE using a plate reader.
# A ROS-generating effect of RLuc8.6-KR protein was measured using RLuc8.6-KR protein (final concentration: 10 μM) and DHE (final concentration: 100 μM) whose fluorescence intensity decreases in the presence of superoxide, and
# Here, the active oxygen generation rate of each protein was measured using 100 μL of buffer (50 mM HEPES-KOH, 24° C., pH 7.4) containing FMN (final concentration: 150 μM) and a Co-h substrate solution (final concentration: 150 μM).
# The rate of decrease in fluorescence intensity was measured at the excitation wavelength of 370 nm and the emission wavelength of 420 nm of DHE using a plate reader. In addition, the rate of decrease in fluorescence intensity was measured at the excitation wavelength of 380 nm and the emission wavelength of 430 nm of ADPA using a plate reader.
# (§1) A ROS generation rate was measured using 100 μL of buffer (50 mM HEPES-KOH, 24° C., pH 7.4) containing the KR protein, RLuc8.6-KR protein (final concentration: 10 μM) and DHE (final concentration: 100 μM) whose fluorescence intensity decreases in the presence of superoxide.
# A ROS generation rate was measured using 100 μL of buffer (50 mM HEPES-KOH, 24° C., pH 7.4) containing MS, RLuc8-MS (final concentration: 10 μM), DHE (final concentration: 100 μM) whose fluorescence intensity decreases in the presence of superoxide and FMN (final concentration: 150 μM).
# After irradiation with light (referred to as +LED Light) at 10 mW/cm^2 for 30 minutes, the rate of decrease in fluorescence intensity was measured at the excitation wavelength of 370 nm and the emission wavelength of 420 nm of DHE using a plate reader.
# as §1, with “μM),” for “μM) and”, “superoxide and a Co-h substrate solution (final concentration: 150 μM).” for “superoxide.”
# A ROS generation rate was measured using 100 μL of buffer (50 mM HEPES-KOH, 24° C., pH 7.4) containing MS, RLuc8-MS (final concentration: 10 μM), DHE (final concentration: 100 μM) whose fluorescence intensity decreases in the presence of superoxide, FMN (final concentration: 150 μM) and a Co-h substrate solution (final concentration: 150 μM). The rate of decreasing fluorescence intensity was measured at an excitation wavelength of 370 nm and an emission wavelength of 420 nm of DHE using a plate reader.
# A ROS generation rate was measured by reaction of 100 μL of buffer (50 mM HEPES-KOH, 24° C., pH 7.4) containing RLuc8.6-KR protein (final concentration: 10 μM), DHE (final concentration: 100 μM) whose fluorescence intensity decreases in the presence of superoxide, ROS scavenger (SOD (superoxide scavenger, final concentration 800U/ml), sodium azide (Singlet oxygen scavenger; final concentration: 100 mM) and D-mannitol (hydroxyl radical scavenger; final concentration: 100 mM), respectively) for 30 minutes. […]
# MCF-7 cells = experiment: Flow cytometric analysis of KR, SYTOX Green and DAPI; type: cell-based, human
# Experimental: MCF-7 cells were seeded at 5×10^5 cells/mL in a 96-well plate (SPL Cell Culture Plate, 96 well (SPL, Cat #30096)), and cultured at 37° C. for 24 hours (overnight). After the culture, the cells were washed with FBS & Phenol red-free media (RPMI), and 100 μL of FBS & Phenol red-free media (RPMI) containing a purified protein (final concentration: 10 μM), followed by reaction at 37° C. for 24 hours (overnight).
# After washing with KillerRed: FBS & Phenol red-free media (RPMI), the cells were detached by treating 100 μL of Trypsin EDTA (Gibco™), and then centrifuged at 1,000 rpm for 3 minutes. The cells were filtered through a cell strainer (SPL, cat #93070) and resuspended in 400 μL of 1×DPBS containing 5% FBS.
# The cells were washed with SYTOX Green: FBS & Phenol red-free media (RPMI), and 100 μL (final concentration: 150 μM) of FBS & Phenol red-free media (RPMI) containing a Co-h substrate solution was added, followed by incubation for 24 hours at 37° C. 50 μL of SYTOX Green (final concentration: 261 nM) staining DNA of dead cells was added without washing the cells, followed by reaction at 37° C. for 30 minutes. Without washing, the cells were detached by treatment with 100 μL of trypsin EDTA (Gibco™), and centrifuged at 1,000 rpm for 3 minutes. The cells were filtered through a cell strainer (SPL, cat #93070) and resuspended in 400 μL of 1×DPBS containing 5% FBS.
# The cells were washed with DAPI: FBS & Phenol red-free media (RPMI), and 100 μL (final concentration: 150 μM) of FBS & Phenol red-free media (RPMI) containing a Co-h substrate solution was added, followed by incubation for 24 hours at 37° C. The cells were washed with FBS & Phenol red-free media (RPMI), and then 100 μL of media (RPMI) was added thereto. 10 μL of DAPI staining DNA of live cells was added, followed by reaction at 37° C. for 30 minutes. The cells were detached by treatment with 100 μL of trypsin EDTA (Gibco™) without washing, followed by centrifugation at 1,000 rpm for 3 minutes. The cells were filtered through a cell strainer (SPL, cat #93070) and resuspended in 400 μL of 1×DPBS containing 5% FBS.
# [1] = MCF-7, protein 10 μM, Co-h 150 μM 24 hours
Molecule,"superoxide generation rate after light irradiation (superoxide; 10 mW/cm^2, 30 minutes, no substrate, protein 10 μM, DHE)","superoxide generation rate by Co-h reaction after ROS scavenger treatment (superoxide; RLuc8.6-KR 10 μM, Co-h 150 μM 30 minutes, SOD 800 U/ml, sodium azide 100 mM or D-mannitol 100 mM)","superoxide generation rate after Co-h substrate reaction (superoxide; Co-h 150 μM, 30-min reaction, without light irradiation, protein 10 μM, DHE)","reaction time with Co-h until which the superoxide generation rate increased, then constantly maintained (superoxide; protein 10 μM, Co-h 150 μM, DHE) [min]","Co-h concentration until which the superoxide generation rate increased, then constantly maintained (superoxide; protein 10 μM, DHE 100 μM, substrate reaction time 5 minutes) [µM]",number of cells stained with DAPI (FACS) (MCF-7 cells; [1]),"number of cells exhibiting fluorescence of KillerRed (FACS) (MCF-7 cells; MCF-7, protein 10 μM 24 hours)",number of cells exhibiting SYTOX Green (FACS) (MCF-7 cells; [1])
B1,higher superoxide generation rate,lowest when SOD was treated,,,,,,
B2,,,highest superoxide generation rate,30,150,increases without a cytotoxic effect,,
B3,,,,,,decreased,increased,increased

# From patent US20220040304A1, “A COMPOSITION FOR CANCER CELL DEATH AND ITS USE” (Industry-University Cooperation Foundation Hanyang …, priority 2018, published 2022)
